Reference: patent US20200262877A1, “ION CHANNEL-BINDING PEPTIDES AND METHODS OF USE THEREOF” (priority 2017, published 2020)

Experiments:
α4β2 = target: T1, α4β2 (Homo sapiens, UniProt P17787+P43681); experiment: Ion channel panel (IonWorks Barracuda): α4β2; type: cell-based; details: 100% = no change, <100% = inhibition
T1 construct: host or cells: HEK293 or CHO
Protocol: (§1) This example describes a method for assaying ion channel activity in cells.
(§2) Peptides were screened in duplicate at final concentrations of 20 μM and 200 nM, as determined by amino acid analysis, and diluted into HEPES buffered physiological saline (HBPS). HEK293 or CHO cells from the American Type Culture Collection (ATCC) were transfected with the appropriate ion channel before use. HEK293 cells were grown in Dulbecco's Modified Eagle Medium/Nutrient Mixture F-12, and CHO cells were cultured in Ham's F-12 media. All cultures were supplemented with 10% fetal bovine serum, 100 U/ml penicillin G, 100 μg/ml streptomycin sulfate, and the appropriate selection antibiotics. Prior to use, cells were washed twice with Hank's Balanced Salt Solution, and treated with Accutase cell detachment solution (Sigma-Aldrich). Cells were then washed. Peptides and controls were incubated with cells for at least five minutes.
(§3) Percent inhibition was defined as: (1-(Ipeptide/Icontrol))×100%).
(§4) Percent values were calculated using the following formula: % activation=(IPeptide/Icontrol)×100%, where IPeptide is the current produced by co-application a peptide with agonist, and Icontrol refers to the current produced by stimulation in control. Control used for each ion channel is the reference compound matched to a particular channel, as illustrated in TABLE 10 below.

Nav1.5 = Nav1.5 (Homo sapiens, UniProt Q14524); experiment: in vitro; details: 100% = no change; for Activity of Nav1.5 with peptide, expressed as a percentage of the reference compound: peptide at 0.2 μM; for Activity of Nav1.5 with peptide (percentage of the reference compound): peptide at 20 μM
Protocol: as §1, §2, §3, §4

hERG = hERG (Homo sapiens, UniProt Q12809); experiment: in vitro; details: 100% = no change, <100% = inhibition
Protocol: as §1, §2, §3, §4

Kv1.1 = target: T2, Kv1.1 (Homo sapiens, UniProt Q09470); experiment: cell-based; type: cell-based; details: 100% = no change, <100% = inhibition
T2 construct: host or cells: HEK293 or CHO
Protocol: as §1, §2, §3, §4

Kv1.3 = target: T3, Kv1.3 (Homo sapiens, UniProt P22001); experiment: cell-based; type: cell-based; details: 100% = no change, <100% = inhibition
T3 construct: host or cells: HEK293 or CHO
Protocol: as §1, §2, §3, §4

Kv1.2 = target: T4, Kv1.2 (Homo sapiens, UniProt P16389); experiment: cell-based; type: cell-based; details: 100% = no change, <100% = inhibition
T4 construct: host or cells: HEK293 or CHO
Protocol: as §1, §2, §3, §4

Cav2.2 = target: T5, Cav2.2 (Homo sapiens, UniProt Q00975); experiment: cell-based; details: 100% = no change, <100% = inhibition
T5 construct: host or cells: HEK293 or CHO
Protocol: as §1, §2, §3, §4

Cav2.1 = target: T6, Cav2.1 (Homo sapiens, UniProt O00555); experiment: cell-based; details: 100% = no change, <100% = inhibition
T6 construct: host or cells: HEK293 or CHO
Protocol: as §1, §2, §3, §4

Kv2.1 = target: T7, Kv2.1 (Homo sapiens, UniProt Q14721); experiment: cell-based; details: 100% = no change, <100% = inhibition
T7 construct: host or cells: HEK293 or CHO
Protocol: as §1, §2, §3, §4

5HT3a = target: T8, 5HT3a (Homo sapiens, UniProt P46098); experiment: Ion channel panel (IonWorks Barracuda): 5HT3a; type: cell-based
T8 construct: host or cells: HEK293 or CHO
T8 sequence (P46098 whole entry, looked up): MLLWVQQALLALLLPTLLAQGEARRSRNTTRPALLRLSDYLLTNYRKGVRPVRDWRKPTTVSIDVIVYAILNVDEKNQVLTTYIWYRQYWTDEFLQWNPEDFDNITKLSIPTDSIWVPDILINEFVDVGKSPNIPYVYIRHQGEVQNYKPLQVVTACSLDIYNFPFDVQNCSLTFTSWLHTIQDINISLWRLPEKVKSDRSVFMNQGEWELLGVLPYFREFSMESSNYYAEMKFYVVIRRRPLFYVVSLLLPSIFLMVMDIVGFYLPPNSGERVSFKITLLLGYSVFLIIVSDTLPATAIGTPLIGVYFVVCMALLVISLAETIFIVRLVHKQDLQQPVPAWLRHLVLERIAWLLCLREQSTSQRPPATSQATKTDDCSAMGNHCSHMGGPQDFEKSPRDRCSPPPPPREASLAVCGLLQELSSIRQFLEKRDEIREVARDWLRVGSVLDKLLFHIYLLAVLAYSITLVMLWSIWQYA
Protocol: as §1, §2, §3, §4

NR2A = target: T9, NR2A (Homo sapiens, UniProt Q12879); experiment: Ion channel panel (IonWorks Barracuda): NR2A; type: cell-based; details: 100% = no change, <100% = inhibition
T9 construct: host or cells: HEK293 or CHO
Protocol: as §1, §2, §3, §4

Kir2.1 = target: T10, Kir2.1 (Homo sapiens, UniProt P63252); experiment: Ion channel panel (IonWorks Barracuda): Kir2.1; type: cell-based; details: 100% = no change, <100% = inhibition
T10 construct: host or cells: HEK293 or CHO
Protocol: as §1, §2, §3, §4

NR2B = target: T11, NR2B (Homo sapiens, UniProt Q13224); experiment: Ion channel panel (IonWorks Barracuda): NR2B; type: cell-based; details: 100% = no change, <100% = inhibition
T11 construct: host or cells: HEK293 or CHO
Protocol: as §1, §2, §3, §4

GABA = experiment: Ion channel panel (IonWorks Barracuda): GABA; type: cell-based; details: 100% = no change, <100% = inhibition
Protocol: as §1, §2, §3, §4

TRPA1 = target: T12, TRPA1 (Homo sapiens, UniProt O75762); experiment: Ion channel panel (IonWorks Barracuda): TRPA1; type: cell-based; details: 100% = no change, <100% = inhibition
T12 construct: host or cells: HEK293 or CHO
Protocol: as §1, §2, §3, §4

TRPV1 = target: T13, TRPV1 (Homo sapiens, UniProt Q8NER1); experiment: Ion channel panel (IonWorks Barracuda): TRPV1; type: cell-based; details: 100% = no change, <100% = inhibition
T13 construct: host or cells: HEK293 or CHO
Protocol: as §1, §2, §3, §4

Nav1.7 = target: T14, Nav1.7 (Homo sapiens, UniProt Q15858); experiment: cell-based; type: cell-based; details: 100% = no change; for Activity of Nav1.7 with peptide, expressed as a percentage of the reference compound: peptide at 0.2 μM; for Activity of Nav1.7 with peptide (percentage of the reference compound): peptide at 20 μM
T14 construct: host or cells: HEK293 or CHO
Protocol: as §1
as §2, with “Peptides were screened in duplicate at final concentrations of 20 μM and 200 nM, as determined by amino acid analysis, and diluted into HEPES buffered physiological saline (HBPS).” left out
as §3, §4

α3β4 = target: T15, α3β4 (Homo sapiens, UniProt P30926+P32297); experiment: Ion channel panel (IonWorks Barracuda): α3β4; type: cell-based; details: 100% = no change, <100% = inhibition
T15 construct: host or cells: HEK293 or CHO
Protocol: as §1, §2, §3, §4

[1] = first of two Nav1.5 columns (probably TP1)
[2] = second of two Nav1.5 columns (probably TP2)
[3] = first of two Nav1.7 columns (probably TP1)
[4] = second of two Nav1.7 columns (probably TP2)

T14 sequence (Q15858 whole entry): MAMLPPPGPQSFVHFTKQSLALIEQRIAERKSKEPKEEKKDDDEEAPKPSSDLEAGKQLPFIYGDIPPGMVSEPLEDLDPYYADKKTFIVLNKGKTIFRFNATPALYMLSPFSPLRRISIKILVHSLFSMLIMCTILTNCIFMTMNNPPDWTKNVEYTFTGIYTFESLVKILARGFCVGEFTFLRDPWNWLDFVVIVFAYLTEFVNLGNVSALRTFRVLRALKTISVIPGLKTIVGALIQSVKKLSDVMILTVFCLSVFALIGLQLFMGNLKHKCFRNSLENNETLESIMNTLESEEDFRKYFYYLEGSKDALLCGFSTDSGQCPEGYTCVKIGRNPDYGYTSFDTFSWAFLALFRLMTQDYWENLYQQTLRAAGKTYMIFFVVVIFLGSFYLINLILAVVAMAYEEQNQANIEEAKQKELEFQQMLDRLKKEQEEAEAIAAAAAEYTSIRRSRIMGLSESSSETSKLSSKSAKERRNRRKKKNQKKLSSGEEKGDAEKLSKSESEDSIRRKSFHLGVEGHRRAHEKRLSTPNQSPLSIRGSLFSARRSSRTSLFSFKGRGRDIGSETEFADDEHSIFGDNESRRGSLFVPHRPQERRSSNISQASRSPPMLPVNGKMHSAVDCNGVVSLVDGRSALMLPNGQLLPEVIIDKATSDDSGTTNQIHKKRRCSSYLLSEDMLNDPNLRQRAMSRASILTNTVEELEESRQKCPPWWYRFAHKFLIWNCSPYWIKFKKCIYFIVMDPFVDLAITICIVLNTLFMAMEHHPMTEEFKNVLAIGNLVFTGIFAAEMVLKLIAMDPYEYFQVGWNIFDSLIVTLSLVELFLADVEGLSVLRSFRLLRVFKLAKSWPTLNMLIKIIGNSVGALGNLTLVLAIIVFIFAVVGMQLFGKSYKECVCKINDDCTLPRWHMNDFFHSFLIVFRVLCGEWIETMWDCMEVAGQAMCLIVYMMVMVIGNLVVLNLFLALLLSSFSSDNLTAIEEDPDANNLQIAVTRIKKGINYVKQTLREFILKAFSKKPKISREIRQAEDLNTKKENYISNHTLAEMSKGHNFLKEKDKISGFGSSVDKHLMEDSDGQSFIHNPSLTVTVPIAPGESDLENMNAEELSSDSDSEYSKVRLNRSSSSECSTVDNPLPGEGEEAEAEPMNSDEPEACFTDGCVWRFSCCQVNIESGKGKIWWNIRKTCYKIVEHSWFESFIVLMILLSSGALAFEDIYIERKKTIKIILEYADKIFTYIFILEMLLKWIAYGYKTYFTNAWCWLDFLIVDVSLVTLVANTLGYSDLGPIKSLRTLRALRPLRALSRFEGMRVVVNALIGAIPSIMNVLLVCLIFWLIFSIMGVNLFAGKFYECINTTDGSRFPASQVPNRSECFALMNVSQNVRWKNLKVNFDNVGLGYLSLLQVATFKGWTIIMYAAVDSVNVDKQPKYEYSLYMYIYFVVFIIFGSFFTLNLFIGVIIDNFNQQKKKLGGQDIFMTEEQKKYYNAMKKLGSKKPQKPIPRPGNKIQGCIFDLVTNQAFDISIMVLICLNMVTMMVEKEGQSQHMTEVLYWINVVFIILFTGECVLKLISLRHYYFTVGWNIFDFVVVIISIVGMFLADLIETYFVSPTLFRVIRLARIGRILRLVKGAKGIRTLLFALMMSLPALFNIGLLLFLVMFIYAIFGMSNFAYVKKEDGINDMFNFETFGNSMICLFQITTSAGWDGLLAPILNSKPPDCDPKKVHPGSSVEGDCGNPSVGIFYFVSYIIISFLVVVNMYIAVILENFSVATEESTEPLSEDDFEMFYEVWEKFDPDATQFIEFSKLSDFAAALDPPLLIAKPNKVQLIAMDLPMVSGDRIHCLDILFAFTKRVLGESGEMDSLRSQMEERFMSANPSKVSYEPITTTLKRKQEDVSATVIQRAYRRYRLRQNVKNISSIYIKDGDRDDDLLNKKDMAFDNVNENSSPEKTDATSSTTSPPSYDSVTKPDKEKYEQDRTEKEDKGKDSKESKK
Nav1.5, sequence (Q14524 whole entry): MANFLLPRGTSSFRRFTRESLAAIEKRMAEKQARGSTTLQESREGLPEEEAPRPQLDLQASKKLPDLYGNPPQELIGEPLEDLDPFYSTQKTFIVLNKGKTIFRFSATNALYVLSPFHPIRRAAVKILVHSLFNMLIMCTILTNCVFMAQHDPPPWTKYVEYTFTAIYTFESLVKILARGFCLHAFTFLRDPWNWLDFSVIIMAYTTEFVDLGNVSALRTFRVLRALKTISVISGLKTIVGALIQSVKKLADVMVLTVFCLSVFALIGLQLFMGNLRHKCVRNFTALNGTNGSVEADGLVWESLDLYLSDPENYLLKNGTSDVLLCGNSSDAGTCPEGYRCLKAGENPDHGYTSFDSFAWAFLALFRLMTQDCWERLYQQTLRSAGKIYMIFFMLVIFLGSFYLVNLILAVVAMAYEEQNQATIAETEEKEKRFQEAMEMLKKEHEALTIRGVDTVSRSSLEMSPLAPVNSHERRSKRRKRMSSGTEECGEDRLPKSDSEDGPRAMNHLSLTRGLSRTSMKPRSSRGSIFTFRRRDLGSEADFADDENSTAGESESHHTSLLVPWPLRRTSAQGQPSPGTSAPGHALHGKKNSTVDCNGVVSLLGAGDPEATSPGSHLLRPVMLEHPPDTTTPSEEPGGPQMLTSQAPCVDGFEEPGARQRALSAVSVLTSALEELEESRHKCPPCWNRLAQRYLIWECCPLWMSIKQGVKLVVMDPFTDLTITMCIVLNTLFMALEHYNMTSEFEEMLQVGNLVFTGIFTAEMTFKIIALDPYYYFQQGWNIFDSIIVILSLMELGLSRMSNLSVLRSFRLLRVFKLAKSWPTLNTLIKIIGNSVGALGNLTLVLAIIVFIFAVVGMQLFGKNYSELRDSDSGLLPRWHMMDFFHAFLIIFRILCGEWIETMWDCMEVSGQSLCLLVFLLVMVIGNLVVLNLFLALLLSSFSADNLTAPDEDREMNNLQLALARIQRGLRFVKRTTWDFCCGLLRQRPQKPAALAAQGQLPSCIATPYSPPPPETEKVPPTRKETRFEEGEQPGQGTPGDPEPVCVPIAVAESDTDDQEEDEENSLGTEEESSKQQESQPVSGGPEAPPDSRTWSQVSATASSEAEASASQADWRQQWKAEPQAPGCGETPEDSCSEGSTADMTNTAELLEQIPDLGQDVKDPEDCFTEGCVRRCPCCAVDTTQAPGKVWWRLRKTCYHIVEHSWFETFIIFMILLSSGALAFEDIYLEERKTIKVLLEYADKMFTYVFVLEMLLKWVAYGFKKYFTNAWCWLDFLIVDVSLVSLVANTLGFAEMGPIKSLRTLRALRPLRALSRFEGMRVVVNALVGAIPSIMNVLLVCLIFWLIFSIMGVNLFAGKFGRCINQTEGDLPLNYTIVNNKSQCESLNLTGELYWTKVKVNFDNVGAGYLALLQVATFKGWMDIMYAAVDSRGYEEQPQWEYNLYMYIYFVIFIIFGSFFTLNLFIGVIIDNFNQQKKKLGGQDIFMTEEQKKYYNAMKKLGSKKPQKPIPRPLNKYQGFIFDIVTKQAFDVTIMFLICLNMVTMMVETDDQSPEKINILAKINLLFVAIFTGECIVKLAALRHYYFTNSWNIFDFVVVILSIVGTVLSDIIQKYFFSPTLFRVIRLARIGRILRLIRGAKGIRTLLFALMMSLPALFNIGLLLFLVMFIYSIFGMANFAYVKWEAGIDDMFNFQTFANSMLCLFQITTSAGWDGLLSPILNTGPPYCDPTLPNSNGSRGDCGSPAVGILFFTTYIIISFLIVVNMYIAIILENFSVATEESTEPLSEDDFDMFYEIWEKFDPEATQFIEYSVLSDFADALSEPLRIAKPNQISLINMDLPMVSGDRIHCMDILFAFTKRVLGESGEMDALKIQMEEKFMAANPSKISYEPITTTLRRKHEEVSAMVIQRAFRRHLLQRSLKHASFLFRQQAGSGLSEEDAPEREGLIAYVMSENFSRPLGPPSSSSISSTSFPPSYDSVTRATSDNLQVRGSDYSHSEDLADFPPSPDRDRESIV
T4 sequence (P16389 whole entry): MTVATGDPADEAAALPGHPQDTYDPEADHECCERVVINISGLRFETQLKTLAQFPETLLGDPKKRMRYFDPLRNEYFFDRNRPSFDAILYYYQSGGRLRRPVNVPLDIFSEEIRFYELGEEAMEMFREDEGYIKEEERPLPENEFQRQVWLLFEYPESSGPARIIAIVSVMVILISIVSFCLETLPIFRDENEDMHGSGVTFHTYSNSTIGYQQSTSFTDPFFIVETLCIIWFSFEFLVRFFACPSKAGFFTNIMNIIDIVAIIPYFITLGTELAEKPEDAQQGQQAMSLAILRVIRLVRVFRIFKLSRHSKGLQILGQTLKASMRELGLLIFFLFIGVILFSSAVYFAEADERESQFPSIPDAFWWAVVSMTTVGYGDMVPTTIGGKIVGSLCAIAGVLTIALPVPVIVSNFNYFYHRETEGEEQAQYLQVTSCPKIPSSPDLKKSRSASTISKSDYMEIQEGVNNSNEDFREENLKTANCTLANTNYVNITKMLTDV
T3 sequence (P22001 whole entry): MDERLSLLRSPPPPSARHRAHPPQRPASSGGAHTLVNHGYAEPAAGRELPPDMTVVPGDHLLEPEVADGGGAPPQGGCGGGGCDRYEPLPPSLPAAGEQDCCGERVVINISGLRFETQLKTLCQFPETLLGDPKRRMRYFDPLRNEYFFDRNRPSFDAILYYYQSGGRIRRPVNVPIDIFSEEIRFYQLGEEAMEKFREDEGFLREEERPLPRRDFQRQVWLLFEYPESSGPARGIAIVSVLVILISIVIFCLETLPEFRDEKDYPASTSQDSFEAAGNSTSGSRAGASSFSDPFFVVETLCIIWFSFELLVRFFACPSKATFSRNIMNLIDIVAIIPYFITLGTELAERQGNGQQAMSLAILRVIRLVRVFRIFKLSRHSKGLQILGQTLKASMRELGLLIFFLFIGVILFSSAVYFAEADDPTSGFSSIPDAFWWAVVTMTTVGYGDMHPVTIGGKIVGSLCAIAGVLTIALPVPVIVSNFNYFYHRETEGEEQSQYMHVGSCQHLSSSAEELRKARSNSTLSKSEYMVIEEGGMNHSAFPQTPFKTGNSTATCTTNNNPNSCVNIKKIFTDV

For “5 (GSGVPINVKCRGSRDCLDPCKKAGMRFGKCINSKCHCTP) [compound 5]”, the “Activity of a4b2 with peptide, expressed as a percentage of the reference compound” value (α4β2; peptide at 0.2 μM) was 83%, the “Activity of a4b2 with peptide (percentage of the reference compound)” value (α4β2; peptide at 20 μM) was 93% and the “Activity of Nav1.5 with peptide, expressed as a percentage of the reference compound” value (Nav1.5; [1]) was 107%. For the same substance, the “Activity of Nav1.5 with peptide, expressed as a percentage of the reference compound” value (Nav1.5; [2]) was 107%, the “Activity of Nav1.5 with peptide (percentage of the reference compound)” value (Nav1.5; [1]) was 103% and the “Activity of Nav1.5 with peptide (percentage of the reference compound)” value (Nav1.5; [2]) was 105%. The “Activity of hERG with peptide, expressed as a percentage of the reference compound” value (hERG; peptide at 0.2 μM) was 106%, the “Activity of hERG with peptide (percentage of the reference compound)” value (hERG; peptide at 20 μM) was 67% and the “Activity of Kv1.1 with peptide, expressed as a percentage of the reference compound” value (Kv1.1; peptide at 0.2 μM) was 86%. For the same substance, the “Activity of Kv1.1 with peptide (percentage of the reference compound)” value (Kv1.1; peptide at 20 μM) was 55%, the “Activity of Kv1.3 with peptide, expressed as a percentage of the reference compound” value (Kv1.3; peptide at 0.2 μM) was 98% and the “Activity of Kv1.3 with peptide (percentage of the reference compound)” value (Kv1.3; peptide at 20 μM) was 28%. The “Activity of Kv1.2 with peptide, expressed as a percentage of the reference compound” value (Kv1.2; peptide at 0.2 μM) was 89%, the “Activity of Kv1.2 with peptide (percentage of the reference compound)” value (Kv1.2; peptide at 20 μM) was 73% and the “Activity of Cav2.2 with peptide, expressed as a percentage of the reference compound” value (Cav2.2; peptide at 0.2 μM) was 94%. For the same substance, the “Activity of Cav2.2 with peptide (percentage of the reference compound)” value (Cav2.2; peptide at 20 μM) was 117%, the “Activity of Cav2.1 with peptide, expressed as a percentage of the reference compound” value (Cav2.1; peptide at 0.2 μM) was 100% and the “Activity of Cav2.1 with peptide (percentage of the reference compound)” value (Cav2.1; peptide at 20 μM) was 121%. The “Activity of Kv2.1 with peptide, expressed as a percentage of the reference compound” value (Kv2.1; peptide at 0.2 μM) was 110%, the “Activity of Kv2.1 with peptide (percentage of the reference compound)” value (Kv2.1; peptide at 20 μM) was 109% and the “Activity of 5HT3a with peptide (percentage of the reference compound)” value (5HT3a) was 80%. For the same substance, the “Activity of 5HT3a with peptide, expressed as a percentage of the reference compound” value (5HT3a) was 94%, the “Activity of NR2A with peptide, expressed as a percentage of the reference compound” value (NR2A; peptide at 0.2 μM) was 109% and the “Activity of NR2A with peptide (percentage of the reference compound)” value (NR2A; peptide at 20 μM) was 86%. For the same substance, the “Activity of Kir2.1 with peptide, expressed as a percentage of the reference compound” value (Kir2.1; peptide at 0.2 μM) was 103%, the “Activity of Kir2.1 with peptide (percentage of the reference compound)” value (Kir2.1; peptide at 20 μM) was 86% and the “Activity of NR2B with peptide, expressed as a percentage of the reference compound” value (NR2B; peptide at 0.2 μM) was 112%. For the same substance, the “Activity of NR2B with peptide (percentage of the reference compound)” value (NR2B; peptide at 20 μM) was 95%, the “Activity of GABA with peptide, expressed as a percentage of the reference compound” value (GABA; peptide at 0.2 μM) was 109% and the “Activity of GABA with peptide (percentage of the reference compound)” value (GABA; peptide at 20 μM) was 114%. For the same substance, the “Activity of TRPA1 with peptide, expressed as a percentage of the reference compound” value (TRPA1; peptide at 0.2 μM) was 119%, the “Activity of TRPA1 with peptide (percentage of the reference compound)” value (TRPA1; peptide at 20 μM) was 75% and the “Activity of TRPV1 with peptide, expressed as a percentage of the reference compound” value (TRPV1; peptide at 0.2 μM) was 101%. The “Activity of TRPV1 with peptide (percentage of the reference compound)” value (TRPV1; peptide at 20 μM) was 101%, the “Activity of Nav1.7 with peptide, expressed as a percentage of the reference compound” value (Nav1.7; [3]) was 98% and the “Activity of Nav1.7 with peptide, expressed as a percentage of the reference compound” value (Nav1.7; [4]) was 109%. For the same substance, the “Activity of Nav1.7 with peptide (percentage of the reference compound)” value (Nav1.7; [3]) was 79%, the “Activity of Nav1.7 with peptide (percentage of the reference compound)” value (Nav1.7; [4]) was 66% and the “Activity of a3b4 with peptide, expressed as a percentage of the reference compound” value (α3β4; peptide at 0.2 μM) was 104%. For the same substance, the “Activity of a3b4 with peptide (percentage of the reference compound)” value (α3β4; peptide at 20 μM) was 90%.
